Patent US20170101454A1 (Novo Nordisk, published 2017)
Blank lines part the entries; values can stand above or below the binder they belong to. Starred links: 1 amine or outer side, 2 acyl side, 3 side chain; linkers in the order of their positions; H or OH if unused. Non-standard residues stand in square brackets, D forms with d. Groups on a side chain read outwards from the residue. No end group written: not given here. *: point of attachment. C18 diacid = O=C(O)CCCCCCCCCCCCCCCCC(=O)*; γGlu = O=C(O)[C@H](CCC(=O)[*:2])N[*:1]; AEEA = NCCOCCOCC(=O)O; Aib = CC(C)(N)C(=O)O

What was measured:
human GLP-1 receptor [1] = biological target: T1, human GLP-1 receptor (human, UniProt P43220 24-463); assay: displacement of [125I]-GLP-1-(7-36)NH2 from BHK membranes with human GLP-1R, SPA, no serum albumin
T1 construct: whole, on cells; reporter assay used whole cells

human glucagon receptor [2] = biological target: T2, human glucagon receptor (human, UniProt P47871 26-477); assay: displacement of [125I]-glucagon from BHK membranes with human glucagon receptor, SPA, no serum albumin
T2 construct: whole, on cells; reporter assay used whole cells; also called hGCGR
T2 sequence (P47871 26-477): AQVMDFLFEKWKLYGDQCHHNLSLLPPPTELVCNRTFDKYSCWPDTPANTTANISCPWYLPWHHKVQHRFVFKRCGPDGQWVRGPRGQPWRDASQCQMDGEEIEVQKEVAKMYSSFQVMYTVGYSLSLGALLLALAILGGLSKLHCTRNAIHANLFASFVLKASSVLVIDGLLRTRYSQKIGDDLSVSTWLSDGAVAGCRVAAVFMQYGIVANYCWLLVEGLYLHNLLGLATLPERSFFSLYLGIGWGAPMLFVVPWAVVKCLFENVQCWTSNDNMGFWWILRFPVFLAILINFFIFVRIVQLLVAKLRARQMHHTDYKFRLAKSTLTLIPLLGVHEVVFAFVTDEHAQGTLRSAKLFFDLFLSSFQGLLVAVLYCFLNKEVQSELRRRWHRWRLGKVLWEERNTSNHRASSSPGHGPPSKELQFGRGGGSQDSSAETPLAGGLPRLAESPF

human glucagon receptor [3] = biological target: T2, human glucagon receptor; assay: cell-based or functional assay
human GLP-1 receptor [4] = biological target: T1, human GLP-1 receptor; assay: cell-based or functional assay

IC50 (human GLP-1 receptor [1]): 0.1 nM
IC50 (human glucagon receptor [2]): 8.7 nM
GlucagonR EC50 (pM), [Assay (I)(b)], CRE luciferase reporter, BHK cells (human glucagon receptor [3]): 31 pM
GLP-1R EC50 (pM) [Assay (I)(a)], CRE luciferase reporter, BHK cells (human GLP-1 receptor [4]): 3 pM
B1: N^ε29-[(4S)-4-carboxy-4-[[(4S)-4-carboxy-4-[[2-[2-[2-[[2-[2-[2-[[(4S)-4-carboxy-4-(17-carboxyheptadecanoylamino)butanoyl]amino]ethoxy]ethoxy]acetyl]amino]ethoxy … (peptide)
peptide: H[Aib]QGTFTSDLSKYLDARRAREFVQWLINK([γGlu-γGlu-AEEA-AEEA-γGlu-C18 diacid])-NH2
modifications: N-terminus assumed
SMILES: CC[C@H](C)[C@H](NC(=O)[C@H](CC(C)C)NC(=O)[C@H](Cc1c[nH]c2ccccc12)NC(=O)[C@H](CCC(N)=O)NC(=O)[C@@H](NC(=O)[C@H](Cc1ccccc1)NC(=O)[C@H](CCC(=O)O)NC(=O)[C@H](CCCNC(=N)N)NC(=O)[C@H](C)NC(=O)[C@H](CCCNC(=N)N)NC(=O)[C@H](CCCNC(=N)N)NC(=O)[C@H](C)NC(=O)[C@H](CC(=O)O)NC(=O)[C@H](CC(C)C)NC(=O)[C@H](Cc1ccc(O)cc1)NC(=O)[C@H](CCCCN)NC(=O)[C@H](CO)NC(=O)[C@H](CC(C)C)NC(=O)[C@H](CC(=O)O)NC(=O)[C@H](CO)NC(=O)[C@@H](NC(=O)[C@H](Cc1ccccc1)NC(=O)[C@@H](NC(=O)CNC(=O)[C@H](CCC(N)=O)NC(=O)C(C)(C)NC(=O)[C@@H](N)Cc1c[nH]cn1)[C@@H](C)O)[C@@H](C)O)C(C)C)C(=O)N[C@@H](CC(N)=O)C(=O)N[C@@H](CCCCNC(=O)CC[C@H](NC(=O)CC[C@H](NC(=O)COCCOCCNC(=O)COCCOCCNC(=O)CC[C@H](NC(=O)CCCCCCCCCCCCCCCCC(=O)O)C(=O)O)C(=O)O)C(=O)O)C(N)=O
notes: also called Chem. 21; Chem 21

IC50 (human GLP-1 receptor [1]): 0.2 nM
IC50 (human glucagon receptor [2]): 19.1 nM
GlucagonR EC50 (pM), [Assay (I)(b)], CRE luciferase reporter, BHK cells (human glucagon receptor [3]): 66 pM
GLP-1R EC50 (pM) [Assay (I)(a)], CRE luciferase reporter, BHK cells (human GLP-1 receptor [4]): 3 pM
B2: N^ε29-[(4S)-4-carboxy-4-[[(4S)-4-carboxy-4-[[2-[2-[2-[[2-[2-[2-[[(4S)-4-carboxy-4-(17-carboxyheptadecanoylamino)butanoyl]amino]ethoxy]ethoxy]acetyl]amino]ethoxy … (peptide)
peptide: H[Aib]QGTFTSDLSKYLDARRARDFVQWLISK([γGlu-γGlu-AEEA-AEEA-γGlu-C18 diacid])-NH2
modifications: N-terminus assumed
SMILES: CC[C@H](C)[C@H](NC(=O)[C@H](CC(C)C)NC(=O)[C@H](Cc1c[nH]c2ccccc12)NC(=O)[C@H](CCC(N)=O)NC(=O)[C@@H](NC(=O)[C@H](Cc1ccccc1)NC(=O)[C@H](CC(=O)O)NC(=O)[C@H](CCCNC(=N)N)NC(=O)[C@H](C)NC(=O)[C@H](CCCNC(=N)N)NC(=O)[C@H](CCCNC(=N)N)NC(=O)[C@H](C)NC(=O)[C@H](CC(=O)O)NC(=O)[C@H](CC(C)C)NC(=O)[C@H](Cc1ccc(O)cc1)NC(=O)[C@H](CCCCN)NC(=O)[C@H](CO)NC(=O)[C@H](CC(C)C)NC(=O)[C@H](CC(=O)O)NC(=O)[C@H](CO)NC(=O)[C@@H](NC(=O)[C@H](Cc1ccccc1)NC(=O)[C@@H](NC(=O)CNC(=O)[C@H](CCC(N)=O)NC(=O)C(C)(C)NC(=O)[C@@H](N)Cc1c[nH]cn1)[C@@H](C)O)[C@@H](C)O)C(C)C)C(=O)N[C@@H](CO)C(=O)N[C@@H](CCCCNC(=O)CC[C@H](NC(=O)CC[C@H](NC(=O)COCCOCCNC(=O)COCCOCCNC(=O)CC[C@H](NC(=O)CCCCCCCCCCCCCCCCC(=O)O)C(=O)O)C(=O)O)C(=O)O)C(N)=O
notes: also called Chem. 27; Chem 27
